Measured values: US20190085055A1
“And” between values parts separate entries of the source, which are not always exact repeats. Identical values can stand only once.

Legend:
[1] = target: D3H44 light chain F116A_L135A; experiment: LCCA (SPR), competitor L1 L135W
[2] = target: D3H44 light chain F116A_L135V; experiment: LCCA (SPR), competitor L1 L135W
[3] = target: D3H44 light chain F116A_L135A; experiment: LCCA (SPR), competitor L1 L135W_N137A
[4] = target: D3H44 light chain L135W_N137A; experiment: LCCA (SPR), competitor L2 F116A_L135A
D3H44 light chain L135W [5] = experiment: LCCA (SPR), competitor L2 F116A_L135A
Chain of D3H44 light chain L135W (light, as listed by the source): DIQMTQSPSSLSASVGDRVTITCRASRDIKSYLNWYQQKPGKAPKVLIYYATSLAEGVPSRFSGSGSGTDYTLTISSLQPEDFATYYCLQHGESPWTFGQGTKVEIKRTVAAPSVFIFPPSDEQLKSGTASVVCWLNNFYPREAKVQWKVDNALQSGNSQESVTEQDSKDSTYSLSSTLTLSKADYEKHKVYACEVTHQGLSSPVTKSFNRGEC

D3H44 light chain L135W [6] = experiment: LCCA (SPR), competitor L2 F116A_L135V
[7] = target: tissue factor extracellular domains (human) (UniProt P13726); experiment: SPR, TF immobilised, purified Fab as analyte, 1:1 model
Chain of tissue factor extracellular domains (human) (P13726 33-251): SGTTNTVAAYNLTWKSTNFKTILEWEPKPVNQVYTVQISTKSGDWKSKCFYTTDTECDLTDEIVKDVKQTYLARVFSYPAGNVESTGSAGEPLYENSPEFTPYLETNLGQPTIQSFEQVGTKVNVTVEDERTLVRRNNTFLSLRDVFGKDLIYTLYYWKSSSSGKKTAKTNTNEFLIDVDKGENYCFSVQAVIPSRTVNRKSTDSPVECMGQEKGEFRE

D3H44 light chain F98W = experiment: LCCA (SPR), competitor L1 F98L
D3H44 light chain P44W = experiment: LCCA (SPR), competitor L1 F98L
D3H44 light chain F98L [8] = experiment: LCCA (SPR), competitor L2 F98W
D3H44 light chain F98L [9] = experiment: LCCA (SPR), competitor L2 P44W
[10] = target: D3H44 light chain F118W_V133S; experiment: LCCA (SPR), competitor L1 WT
[11] = target: D3H44 light chain F118W_V133S; experiment: LCCA (SPR), competitor L1 F116A
D3H44 light chain F116A [12] = experiment: LCCA (SPR), competitor L2 F118W_V133S
[13] = target: D3H44 light chain, wild type; experiment: LCCA (SPR), competitor L2 F118W_V133S
Chain of D3H44 light chain, wild type (light, as listed by the source): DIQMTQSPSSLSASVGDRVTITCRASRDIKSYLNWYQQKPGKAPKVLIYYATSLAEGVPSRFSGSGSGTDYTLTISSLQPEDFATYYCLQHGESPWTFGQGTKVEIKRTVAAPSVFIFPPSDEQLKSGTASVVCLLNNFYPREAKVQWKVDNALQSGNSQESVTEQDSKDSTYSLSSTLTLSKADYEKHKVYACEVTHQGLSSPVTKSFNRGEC

D3H44 light chain S176L = experiment: LCCA (SPR), competitor L2 WT
Chain of D3H44 light chain S176L (light, as listed by the source): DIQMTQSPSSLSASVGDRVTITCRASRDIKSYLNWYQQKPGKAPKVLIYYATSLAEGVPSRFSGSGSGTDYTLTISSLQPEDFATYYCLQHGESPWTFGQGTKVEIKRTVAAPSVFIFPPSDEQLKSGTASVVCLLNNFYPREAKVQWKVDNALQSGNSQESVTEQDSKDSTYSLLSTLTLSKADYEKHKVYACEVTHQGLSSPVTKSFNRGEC

[14] = target: D3H44 light chain, wild type; experiment: LCCA (SPR), competitor L1 S176L
D3H44 light chain Q38D = experiment: LCCA (SPR), competitor L1 Q38R
Chain of D3H44 light chain Q38D (light, as listed by the source limits assumed): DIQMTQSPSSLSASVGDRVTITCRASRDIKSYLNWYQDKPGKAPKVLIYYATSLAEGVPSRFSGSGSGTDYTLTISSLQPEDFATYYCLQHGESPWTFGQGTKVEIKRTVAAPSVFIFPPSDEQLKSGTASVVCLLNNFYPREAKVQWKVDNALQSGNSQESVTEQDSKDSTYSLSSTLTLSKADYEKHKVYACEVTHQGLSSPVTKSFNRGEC

D3H44 light chain Q38R = experiment: LCCA (SPR), competitor L2 Q38D
Chain of D3H44 light chain Q38R (light, as listed by the source): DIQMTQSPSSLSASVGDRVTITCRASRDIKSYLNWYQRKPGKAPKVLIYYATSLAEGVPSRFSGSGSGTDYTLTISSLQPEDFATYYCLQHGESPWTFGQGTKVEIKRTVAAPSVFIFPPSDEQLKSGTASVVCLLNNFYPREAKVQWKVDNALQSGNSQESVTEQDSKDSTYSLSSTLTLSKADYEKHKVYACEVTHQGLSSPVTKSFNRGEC

[15] = target: D3H44 light chain Q38N_T85K; experiment: LCCA (SPR), competitor L1 Q38N_T85E
Chain of D3H44 light chain Q38N_T85K (light, as listed by the source limits assumed): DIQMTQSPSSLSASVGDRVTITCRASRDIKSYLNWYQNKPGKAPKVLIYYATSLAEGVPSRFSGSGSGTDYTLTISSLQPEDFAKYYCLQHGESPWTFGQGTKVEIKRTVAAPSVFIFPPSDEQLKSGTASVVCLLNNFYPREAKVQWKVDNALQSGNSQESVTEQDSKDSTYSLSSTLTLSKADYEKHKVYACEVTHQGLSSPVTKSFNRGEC

[16] = target: D3H44 light chain Q38N_T85E; experiment: LCCA (SPR), competitor L2 Q38N_T85K
Chain of D3H44 light chain Q38N_T85E (light, as listed by the source limits assumed): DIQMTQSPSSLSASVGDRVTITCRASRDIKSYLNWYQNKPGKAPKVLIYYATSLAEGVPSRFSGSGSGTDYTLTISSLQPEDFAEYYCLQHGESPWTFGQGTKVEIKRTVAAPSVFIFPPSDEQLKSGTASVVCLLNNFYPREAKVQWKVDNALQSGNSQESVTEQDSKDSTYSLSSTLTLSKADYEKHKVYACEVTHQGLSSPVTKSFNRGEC

D3H44 light chain F116A [17] = experiment: LCCA (SPR), competitor L1 WT
[18] = target: D3H44 light chain, wild type; experiment: LCCA (SPR), competitor L2 F116A
D3H44 light chain F98L [19] = experiment: LCCA (SPR), competitor L1 WT
[20] = target: D3H44 light chain, wild type; experiment: LCCA (SPR), competitor L2 F98L
[21] = target: D3H44 light chain L89R_F98T; experiment: LCCA (SPR), competitor L2 WT
Chain of D3H44 light chain L89R_F98T (light, as listed by the source limits assumed): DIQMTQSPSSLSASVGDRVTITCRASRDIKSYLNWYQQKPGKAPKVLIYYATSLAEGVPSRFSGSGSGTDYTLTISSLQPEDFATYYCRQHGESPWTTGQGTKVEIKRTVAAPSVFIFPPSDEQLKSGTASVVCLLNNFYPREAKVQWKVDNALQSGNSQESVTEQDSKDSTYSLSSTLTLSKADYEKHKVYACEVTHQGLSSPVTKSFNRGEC

[22] = target: D3H44 light chain, wild type; experiment: LCCA (SPR), competitor L1 L89R_F98T

D3H44 heavy chain (Fab format) A139G_V190A
H1 L2 of H1 L1:H1 L2 (screen) [1]: 10.1
H1 L2 of H1 L1:H1 L2 (verification) [1]: 10.6
H1 L2 of H1 L1:H1 L2 (screen) [2]: 13.8
H1 L2 of H1 L1:H1 L2 (verification) [2]: 48.3
H1 L2 of H1 L1:H1 L2 (screen) [3]: 5.16
H1 L1 of H1 L1:H1 L2 (screen) [4]: 70.5
H1 L1 of H1 L1:H1 L2 (screen) (D3H44 light chain L135W [5]): 65
H1 L1 of H1 L1:H1 L2 (verification) (D3H44 light chain L135W [5]): 69.5
H1 L1 of H1 L1:H1 L2 (screen) (D3H44 light chain L135W [6]): 68.4
H1 L1 of H1 L1:H1 L2 (verification) (D3H44 light chain L135W [6]): 49

D3H44 Fab Design 13 H1-L1 (H1 L143A_D144G_Q179R, L1 Q124E_V133W_Q160E_T180E)
Kd [7]: 0.087 nM

D3H44 Fab Design 11 H1-L1 (H1 S188L_V190Y, L1 V133S)
Kd [7]: 0.043 nM

D3H44 heavy chain (Fab format) V37W_W103H
H1 L2 of H1 L1:H1 L2 (screen) (D3H44 light chain F98W): 30
H1 L2 of H1 L1:H1 L2 (verification) (D3H44 light chain F98W): 30.5
H1 L2 of H1 L1:H1 L2 (screen) (D3H44 light chain P44W): 29.2
H1 L2 of H1 L1:H1 L2 (verification) (D3H44 light chain P44W): 21.2
H1 L1 of H1 L1:H1 L2 (screen) (D3H44 light chain F98L [8]): 57.2
H1 L1 of H1 L1:H1 L2 (verification) (D3H44 light chain F98L [8]): 62.3
H1 L1 of H1 L1:H1 L2 (screen) (D3H44 light chain F98L [9]): 48.3
H1 L1 of H1 L1:H1 L2 (verification) (D3H44 light chain F98L [9]): 56

D3H44 heavy chain (Fab format) A139V_V190S
H1 L2 of H1 L1:H1 L2 (screen) [10]: 35.2
H1 L2 of H1 L1:H1 L2 (verification) [10]: 8.66
H1 L2 of H1 L1:H1 L2 (screen) [11]: 35.1
H1 L2 of H1 L1:H1 L2 (verification) [11]: 10.1
H1 L1 of H1 L1:H1 L2 (screen) (D3H44 light chain F116A [12]): 68.7
H1 L1 of H1 L1:H1 L2 (verification) (D3H44 light chain F116A [12]): 42.1
H1 L1 of H1 L1:H1 L2 (screen) [13]: 58.8
H1 L1 of H1 L1:H1 L2 (verification) [13]: 52.2

D3H44 heavy chain (Fab format) F174V_S188L
H2 L1 of H2 L2:H2 L1 (screen) (D3H44 light chain S176L): 5.94
H2 L2 of H2 L2:H2 L1 (screen) [14]: 103

D3H44 Fab Design 30 H2-L2 (H2 L145E_K147T, L2 Q160K_T178R)
Kd [7]: 0.06 nM

D3H44 Fab Design 15 H1-L1 (H1 D146G_Q179R, L1 Q124E_Q160E_T178D)
Kd [7]: 0.082 nM

D3H44 heavy chain (Fab format) S188L
H2 L1 of H2 L2:H2 L1 (screen) (D3H44 light chain S176L): 9.32
H2 L2 of H2 L2:H2 L1 (screen) [14]: 92.5

D3H44 heavy chain (Fab format) Q39D
H1 L2 of H1 L1:H1 L2 (screen) (D3H44 light chain Q38D): 34.5
H1 L2 of H1 L1:H1 L2 (verification) (D3H44 light chain Q38D): 31.1
H1 L1 of H1 L1:H1 L2 (screen) (D3H44 light chain Q38R): 66.9
H1 L1 of H1 L1:H1 L2 (verification) (D3H44 light chain Q38R): 61.8
H2 L2 of H2 L2:H2 L1 (screen) [15]: 71.7
H2 L1 of H2 L2:H2 L1 (screen) [16]: 27.4

D3H44 heavy chain (Fab format) A139W_V190A
H2 L2 of H2 L2:H2 L1 (screen) (D3H44 light chain F116A [17]): 74.5
H2 L2 of H2 L2:H2 L1 (verification) (D3H44 light chain F116A [17]): 51.4
H2 L1 of H2 L2:H2 L1 (screen) [18]: 17.8
H2 L1 of H2 L2:H2 L1 (verification) [18]: 19.7

D3H44 heavy chain (Fab format) A139V
H2 L2 of H2 L2:H2 L1 (screen) [11]: 63.9
H2 L2 of H2 L2:H2 L1 (verification) [11]: 24.5 and 56.1
H2 L1 of H2 L2:H2 L1 (screen) (D3H44 light chain F116A [12]): 35.7
H2 L1 of H2 L2:H2 L1 (verification) (D3H44 light chain F116A [12]): 56.1 and 24.5

D3H44 heavy chain (Fab format) F100W
H2 L2 of H2 L2:H2 L1 (screen) (D3H44 light chain F98L [19]): 56.8
H2 L2 of H2 L2:H2 L1 (verification) (D3H44 light chain F98L [19]): 38.9
H2 L1 of H2 L2:H2 L1 (screen) [20]: 29.7
H2 L1 of H2 L2:H2 L1 (verification) [20]: 44.9

D3H44 Fab Design 15 H2-L2 (H2 K145T_Q179D_S188L, L2 Q160K_T178R)
Kd [7]: 0.071 nM

D3H44 heavy chain (Fab format) V37E
H1 L1 of H1 L1:H1 L2 (screen) [21]: 54.1
H1 L1 of H1 L1:H1 L2 (verification) [21]: 90.9
H1 L2 of H1 L1:H1 L2 (screen) [22]: 25
H1 L2 of H1 L1:H1 L2 (verification) [22]: 16.5
